Reference: the supplement of paper PMC9112550, “Optimization of the antimicrobial peptide Bac7 by deep mutational scanning” (BMC Biology, 2022)

System: Escherichia coli TOP10
Assay: shrunken log2 fold change of peptide-encoding DNA abundance (4.5 h post-induction vs induction); higher = less antimicrobial activity (less host growth inhibition)
Settings: time post-induction: 4.5 h; library: site-saturation at positions 5, 18, 19, 20
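Further: peptides expressed intracellularly from a pBAD plasmid library in pooled LB shake-flask culture, induced with 0.3% L-arabinose, DNA abundance read by NGS, three biological replicates, DESeq2 with apeglm shrinkage.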

Sequence	shrunken log2 fold change
RRIRMRPPRLPRPRPRPKMRPRP	1.21
RRIRMRPPRLPRPRPRPSYAPRP	-0.0187
RRIRQRPPRLPRPRPRPHTIPRP	-0.412
RRIRCRPPRLPRPRPRPSRWPRP	0.599
RRIRKRPPRLPRPRPRPSKDPRP	0.395
RRIRYRPPRLPRPRPRPFYSPRP	-1.23
RRIRLRPPRLPRPRPRPWFTPRP	-0.509
RRIRWRPPRLPRPRPRPSEKPRP	-0.153
RRIRPRPPRLPRPRPRPTRMPRP	0.479
RRIRYRPPRLPRPRPRPMKYPRP	-0.00968
RRIRWRPPRLPRPRPRPFDSPRP	-0.124
RRIRSRPPRLPRPRPRPENAPRP	-0.231
RRIRDRPPRLPRPRPRPMSWPRP	0.262
RRIRSRPPRLPRPRPRPNSAPRP	-0.35
RRIRNRPPRLPRPRPRPKQLPRP	0.252
RRIRLRPPRLPRPRPRPTAVPRP	0.0335
RRIRVRPPRLPRPRPRPSWCPRP	0.123
RRIRWRPPRLPRPRPRPRHLPRP	0.11
RRIRCRPPRLPRPRPRPFKWPRP	-0.115
RRIRDRPPRLPRPRPRPLECPRP	0.0215
RRIRYRPPRLPRPRPRPVYDPRP	-0.112
RRIRVRPPRLPRPRPRPFPVPRP	-0.0106
RRIRGRPPRLPRPRPRPYDAPRP	-0.317
RRIRYRPPRLPRPRPRPWTFPRP	-0.225
RRIRSRPPRLPRPRPRPNGNPRP	-0.384

Sequence	shrunken log2 fold change
RRIRQRPPRLPRPRPRPMLIPRP	-0.221
RRIRVRPPRLPRPRPRPVDKPRP	-0.278
RRIRARPPRLPRPRPRPFNQPRP	-0.257
RRIRHRPPRLPRPRPRPINGPRP	-0.437
RRIRSRPPRLPRPRPRPDGDPRP	-0.197
RRIRKRPPRLPRPRPRPSLYPRP	0.0834
RRIRIRPPRLPRPRPRPHIWPRP	-0.582
RRIRGRPPRLPRPRPRPRIIPRP	0.0317
RRIRPRPPRLPRPRPRPCANPRP	0.0366
RRIRERPPRLPRPRPRPMQTPRP	0.0432
RRIRDRPPRLPRPRPRPPYHPRP	-0.302
RRIRKRPPRLPRPRPRPIGFPRP	-0.00176
RRIRDRPPRLPRPRPRPLFKPRP	-0.221
RRIRNRPPRLPRPRPRPSWCPRP	-0.0906
RRIRFRPPRLPRPRPRPPAWPRP	0.354
RRIRHRPPRLPRPRPRPAMRPRP	1.1
RRIRTRPPRLPRPRPRPEYYPRP	-0.855
RRIRYRPPRLPRPRPRPFWTPRP	-0.111
RRIRNRPPRLPRPRPRPWRGPRP	0.226
RRIRYRPPRLPRPRPRPADGPRP	0.143
RRIRLRPPRLPRPRPRPDINPRP	-0.665
RRIRCRPPRLPRPRPRPVSYPRP	0.0707
RRIRARPPRLPRPRPRPQRIPRP	0.177
RRIRIRPPRLPRPRPRPKRYPRP	-0.118
RRIRCRPPRLPRPRPRPDCNPRP	-0.219

Sequence	shrunken log2 fold change
RRIRNRPPRLPRPRPRPAQPPRP	-0.0398
RRIRERPPRLPRPRPRPGTNPRP	-0.361
RRIRNRPPRLPRPRPRPVWSPRP	0.0637
RRIRMRPPRLPRPRPRPRTGPRP	0.561
RRIRYRPPRLPRPRPRPGNVPRP	0.0571
RRIRTRPPRLPRPRPRPPCFPRP	0.153
RRIRDRPPRLPRPRPRPFCWPRP	0.445
RRIRQRPPRLPRPRPRPSIKPRP	-0.425
RRIRLRPPRLPRPRPRPGSRPRP	-0.183
RRIRYRPPRLPRPRPRPLDIPRP	-1.69
RRIRGRPPRLPRPRPRPTIRPRP	0.432
RRIRPRPPRLPRPRPRPRPLPRP	0.627
RRIRLRPPRLPRPRPRPYDMPRP	-0.921
RRIRRRPPRLPRPRPRPPGIPRP	0.612
RRIRARPPRLPRPRPRPPRWPRP	0.794
RRIRARPPRLPRPRPRPFGWPRP	0.24
RRIRDRPPRLPRPRPRPVAPPRP	0.445
RRIRWRPPRLPRPRPRPKTWPRP	0.325
RRIRMRPPRLPRPRPRPKAYPRP	0.0225
RRIRNRPPRLPRPRPRPYRRPRP	-0.281
RRIRVRPPRLPRPRPRPTRIPRP	0.108
RRIRNRPPRLPRPRPRPAIGPRP	0.0499
RRIRVRPPRLPRPRPRPTFFPRP	0.0435
RRIRWRPPRLPRPRPRPRTHPRP	0.0534
RRIRHRPPRLPRPRPRPKSTPRP	-0.0868
